Assays:
[1] = biological target: T1, WT SARS-CoV-2 spike S1 subunit (SARS-CoV-2, UniProt P0DTC2 16-685); experiment: bio-layer interferometry (BLI, Octet), monovalent Fab affinity
[2] = biological target: T1, WT SARS-CoV-2 spike S1 subunit; experiment: BLI (Octet), Fab, monovalent
[3] = biological target: SARS-CoV spike S1 subunit (SARS-CoV, UniProt P59594 14-667); experiment: BLI (Octet), Fab, monovalent

Row | Binder | Kd [1] [nM] | Kd [2] [nM] | Kd [3] [nM]
1 | ADI-58125 (Fab, V domains shown) VH: EVQLVESGGGLVKPGGSLRLSCAASGFTFSSYYMNWVRQAPGKGLEWVSSISEDGYSTYYPDSLKGRFTISRDSAKNSLYLQMNSLRADDTAVYYCARDFSGHTAWAGTGFEYWGQGTLVTVSS VL: QSVLTQPPSVSGAPGQRITISCTGSSSNIGAGYDVHWYQQLPGTAPKLLIYGSSSRNSGVPDRFSGSKSGTSASLAITGLQAEDEADYYCQSYDSSLSVLYTFGTGTKVTVLG | 0.6 | – | –
2 | VYD222 Fab (Fab, V domains shown) VH: EVQLVESGGGLVKPGGSLRLSCAASGFTFGSYEMNWVRQAPGKGLEWVSSISEDGYSTYYPDSLKGRFTISRDSAKNSLYLQMNSLRADDTAVYYCARDFGGDTAWAGTGFTYWGQGTLVTVSS VL: QSVLTQPPSVSGAPGQRITISCTGSSSNIGAGYDVHWYQQLPGTAPKLLIYGSSSRNYGVPDRFSGSKSGTSASLAITGLQAEDEADYYCQSYDSDLGVLYTFGTGTKVTVL | – | 2.14 | 0.478

Source: US20260078171A1 (INVIVYD, published 2026)
